This note sets out measurements from US20180339041A1 (Kyowa Kirin, published 2018).

Test [1] addresses T1, C-terminally FLAG-tagged rat Gas6 recombinant protein (rGas6-F) (rat, UniProt Q63772 28-674, limits assumed, gamma-carboxylated glutamic acid residues in the Gla domain (producer cells co-express rat VKOR and human GGCX); positions not given).
T1 construct: also called rat Gas6-F
T1 sequence (looked up): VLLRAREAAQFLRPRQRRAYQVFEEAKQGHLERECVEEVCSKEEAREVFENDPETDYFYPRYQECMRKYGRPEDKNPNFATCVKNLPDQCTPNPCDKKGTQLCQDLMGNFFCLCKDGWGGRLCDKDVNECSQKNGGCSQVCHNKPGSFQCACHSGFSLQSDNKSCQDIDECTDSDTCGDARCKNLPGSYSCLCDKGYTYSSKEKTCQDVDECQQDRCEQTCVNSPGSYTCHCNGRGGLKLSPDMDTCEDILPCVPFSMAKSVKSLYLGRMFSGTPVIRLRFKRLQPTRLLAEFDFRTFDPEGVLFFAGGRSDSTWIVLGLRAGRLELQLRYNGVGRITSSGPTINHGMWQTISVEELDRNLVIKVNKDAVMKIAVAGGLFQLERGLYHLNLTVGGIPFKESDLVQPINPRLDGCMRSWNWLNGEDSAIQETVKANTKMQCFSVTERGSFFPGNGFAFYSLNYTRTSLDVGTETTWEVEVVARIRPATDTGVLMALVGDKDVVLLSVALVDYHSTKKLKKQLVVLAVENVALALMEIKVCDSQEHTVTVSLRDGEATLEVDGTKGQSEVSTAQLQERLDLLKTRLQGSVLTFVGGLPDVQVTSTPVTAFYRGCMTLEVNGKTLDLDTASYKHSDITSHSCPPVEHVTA
As to the kind of experiment: competition ELISA: rAxl-hFc coated; rGas6-F at 50 ng/mL final premixed with the antibody; bound Gas6-F detected with anti-FLAG M2-HRP; blocked partner rAxl-hFc (Examples 5(4) and 7) [B].

For test [2], the target named is T2, C-terminally FLAG-tagged mouse Gas6 recombinant protein (mGas6-F) (mouse, UniProt Q61592 28-674, limits assumed, gamma-carboxylated glutamic acid residues in the Gla domain (producer cells co-express rat VKOR and human GGCX); positions not given).
T2 construct: also called mouse Gas6-F
T2 sequence (looked up): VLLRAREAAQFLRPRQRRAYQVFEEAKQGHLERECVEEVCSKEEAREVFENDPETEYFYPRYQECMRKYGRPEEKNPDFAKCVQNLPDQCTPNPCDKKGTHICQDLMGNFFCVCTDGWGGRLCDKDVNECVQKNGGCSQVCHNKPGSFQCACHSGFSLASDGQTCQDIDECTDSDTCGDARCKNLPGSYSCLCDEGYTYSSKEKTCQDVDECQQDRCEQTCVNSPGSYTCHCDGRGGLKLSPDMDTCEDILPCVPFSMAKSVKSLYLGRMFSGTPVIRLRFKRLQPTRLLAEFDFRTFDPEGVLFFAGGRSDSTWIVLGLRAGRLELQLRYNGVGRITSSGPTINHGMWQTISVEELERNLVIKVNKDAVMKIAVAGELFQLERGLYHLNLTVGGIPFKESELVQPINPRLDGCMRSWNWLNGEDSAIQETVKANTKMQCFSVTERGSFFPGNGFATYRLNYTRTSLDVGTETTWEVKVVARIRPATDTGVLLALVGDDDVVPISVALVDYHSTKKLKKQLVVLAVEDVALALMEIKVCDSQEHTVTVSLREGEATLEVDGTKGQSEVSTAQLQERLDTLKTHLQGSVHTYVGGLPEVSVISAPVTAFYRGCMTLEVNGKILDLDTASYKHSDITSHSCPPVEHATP
Nature of the test: competition ELISA: mAxl-mFc coated; mGas6-F at 50 ng/mL final premixed with the antibody; bound Gas6-F detected with anti-FLAG M2-HRP; blocked partner mAxl-mFc (Examples 5(4) and 7) [C]. A general note: An ELISA detects its analyte on a solid surface through an enzyme-linked reagent.

B1: anti-human Gas6 mouse monoclonal antibody KM5320 (KM5320-mKG1 antibody) (antibody, V domains shown)
VH: QIQLVQSGPELKKPGETVKISCKASGYTFTNYGMNWVKQAPGKGLKWMGWINTETGEPTYSDDFKGRFAFSLETSATTAYLQINNLRNEDMATYFCAREDGYYGTLDYWGQGTSVTVSS
VL: SIVMTQTPKFLLVSAGDRVTITCKASQSVSNDVAWYQQKPGQSPKVLIYYASNRYTGVPDRFTGSGYGTDFTFTISTVQAEDLAVYFCQQDYSSPWTFGGGTKLEIK
notes: Hybridoma-derived mouse IgG1, kappa; also called KM5320 antibody
With B1, the “IC50 (read off the curve)” value in test [1] is around 50 ng/mL; in test [2] it was around 90 ng/mL.

B2: anti-human Gas6 mouse monoclonal antibody KM5321 (KM5321-mKG1 antibody) (antibody, V domains shown)
VH: QIQLVQSGPELKKPGETVKISCRASGYTFTNYGMNWVKQAPGKGLKWMGWINTNTGEPTYTEEFKGRFAFSLETSATTAYLQINDLKNEDTATYFCARDEGWFVYWGQGTLITVSA
VL: ETTVTQSPASLSVATGEKVTIRCITSTDIDDDMNWYQQKPGEPPKLLISEGNTLRPGVPSRFSSSGYGTDFVFTIENTLSEDVADYYCLQTDSVPLTFGAGTKLELK
notes: Hybridoma-derived mouse IgG1, kappa; also called KM5321 antibody
Turning to B2, the “IC50 (read off the curve)” value in test [1] and in test [2] was around 30 ng/mL throughout.
